According to US20240240141A1, “RAPID AND EFFICIENT CLINICAL GRADE PIGMENT EPITHELIUM INDUCTION METHOD, KIT, AND APPLICATION” (ALLIFE MEDICINE (ZHUHAI) LIMITED, priority 2021, published 2024):

Tested on: iPSCs
Assay: qPCR of PAX6 expression in iPSCs cultured in RDM1 with different BMP signaling pathway inhibitors
Type: cell-based
Details: 50 ng/mL noggin in RDM1 culture medium, day 6, Day 0 as control; compared with 2 μM Dorsomorphin or 3 μM LDN-193189 (FIG. 9)
Procedure: 1. Collect 200W cells, adding 1 ml TRIZOL, extracting RNA and determining the RNA concentration. Taking 1 μg RNA and reverse-transcribing it into cDNA. Premixing according to the system as follows in Table 1.
2. Then putting the above system into the Light cycler instrument for reaction according to the 3-step method with a number of cycles of 45. The reaction system is as follows in Table 2:
iPSCs were cultured according to the method of Example 1. 50 ng/mL noggin, 2 μM Dorsomorphin or 3 μM LDN-193189 was added to the RDM1 culture medium as three sets of parallel controls. The expression level of PAX6 in the cells on day 6 was detected.
The results are shown in FIG. 9: Day 0 was used as a control. The expression level of PAX6 was detected after 6 days of cell differentiation.

B1: noggin (protein, UniProt Q13253 28-232, looked up)
Noggin: QHYLHIRPAPSDNLPLVDLIEHPDPIFDPKEKDLNETLLRSLLGGHYDPGFMATSPPEDRPGGGGGAAGGAEDLAELDQLLRQRPSGAMPSEIKGLEFSEGLAQGKKQRLSKKLRRKLQMWLWSQTFCPVLYAWNDLGSRFWPRYVKVGSCFSKRSCSVPEGMVCKPSKSVHLTVLRWRCQRRGGQRCGWIPIQYPIISECKCSC
expression level of PAX6: the best effect and the highest expression level of PAX6
